Reference: US20260184782A1 (TWIST BIOSCIENCE, published 2026)
Changes are numbered by the printed parent chain. Read-outs that look alike come from different tables or passages of the source.

B1: TIGIT-SC196 (Fc fusion)
VHH: EVQLVESGGGLVQPGGSLRLSCAASGFAFSSDWMGWFRQAPGKEREWVASVLRGGYTWYADSVKGRFTISADNSKNTAYLQMNSLKPEDTAVYYCATEGLGYWGQGTLVTVSS
notes: VHH-Fc
B2: TIGIT-SC157 (Fc fusion)
VHH: EVQLVESGGGLVQPGGSLRLSCAASGFTFSPSWMGWFRQAPGKEREWVASVLRGGYTWYADSVKGRFTISADNSKNTAYLQMNSLKPEDTAVYYCTTEGYDFWSGYYDYWGQGTLVTVSS
notes: VHH-Fc
B3: TIGIT-471-001 (antibody, V domains shown)
VH: EVQLLESGGGLVQPGGSLRLSCAASGFTFSNYGVSWVRQAPGKGLEWVGYINPSRGYTYYADSVKGRFTISRDNSKNTLYLQMNSLRAEDTAVYYCARSYGGGFDYWGQGTLVTVSS
VL: DIQMTQSPSSLSASVGDRVTITCRASQTIERRLNWYQQKPGKAPKLLIYDASSLHTGVPSRFSGSGSGTDFTLTISSLQPEDFATYYCQQSYIIPPTFGQGTKVEIK
notes: Variable domains only
B4: TIGIT-471-019 (antibody, V domains shown)
VH: B3 VH with P41H, G49V, T69S
VL: B3 VL
notes: Variable domains only
B5: TIGIT-471-038 (antibody, V domains shown)
VH: B3 VH
VL: B3 VL with P59S, D70Y, P80A
notes: Variable domains only
B6: TIGIT-471-048 (antibody, V domains shown)
VH: B3 VH
VL: B3 VL with R24G, F62I, D82H
notes: Variable domains only
B7: TIGIT-471-011 (antibody, V domains shown)
VH: EVQLLESGGGLVQPGGSLRLSCAASGFTFSNYGVSWVRQAPGKGLEWVSSIDWHGWVTYYADSVKGRFTISRDNSKNTLYLQMNSLRAEDTAVYYCVKNALRFDYWGQGTLVTVSS
VL: DIQMTQSPSSLSASVGDRVTITCSASQDINKYLNWYQQKPGKAPKLLIYHTSRLQSGVPSRFSGSGSGTDFTLTISSLQPEDFATYYCQQVVWRPFTFGQGTKVEIK
notes: Variable domains only
B8: TIGIT-211-17 (antibody, V domains shown)
VH: EVQLLESGGGLVQPGGSLRLSCAASGFTFAEYSMNWVRQAPGKGLEWVSWISPHGALTYYADSVKGRFTISRDNSKNTLYLQMNSLRAEDTAVYYCARSYGGGFDYWGQGTLVTVSS
VL: B3 VL with D50Q, A51N, S52D, S53K, L54R, H55P, T56S, I93S
B9: TIGIT-211-18 (antibody, V domains shown)
VH: EVQLLESGGGLVQPGGSLRLSCAASGFTFGTIPMSWVRQAPGKGLEWVGVIWGGGGTYYADSVKGRFTISRDNSKNTLYLQMNSLRAEDTAVYYCAKAHGNPVSDLSFDYWGQGTLVTVSS
VL: DIQMTQSPSSLSASVGDRVTITCSGDKLGDKYTSWYQQKPGKAPKLLIYHTSRLQDGVPSRFSGSGSGTDFTLTISSLQPEDFATYYCQQSYNLPLTFGQGTKVEIK
B10: TIGIT-211-28 (antibody, V domains shown)
VH: EVQLLESGGGLVQPGGSLRLSCAASGFTFSTYAMSWVRQAPGKGLEWVSEISPSGGYTYYADSVKGRFTISRDNSKNTLYLQMNSLRAEDTAVYYCAKVKLGGGPNFDYWGQGTLVTVSS
VL: DIQMTQSPSSLSASVGDRVTITCQGASLRNYYASWYQQKPGKAPKLLIYDTSKVASGVPSRFSGSGSGTDFTLTISSLQPEDFATYYCFQGSHIPYTFGQGTKVEIK
B11: TIGIT-211-30 (antibody, V domains shown)
VH: EVQLLESGGGLVQPGGSLRLSCAASGFTFKSYGMHWVRQAPGKGLEWVSAISGSGGGTSYADSVKGRFTISRDNSKNTLYLQMNSLRAEDTAVYYCARAGQWLGDFDYWGQGTLVTVSS
VL: DIQMTQSPSSLSASVGDRVTITCRASQPIGPDLLWYQQKPGKAPKLLIYRKSNRPSGVPSRFSGSGSGTDFTLTISSLQPEDFATYYCQQSYSTPYTFGQGTKVEIK
B12: TIGIT-211-35 (antibody, V domains shown)
VH: EVQLLESGGGLVQPGGSLRLSCAASGFTFNAYPMTWVRQAPGKGLEWVSAITGSGGSTYYADSVKGRFTISRDNSKNTLYLQMNSLRAEDTAVYYCARDGSYSSSWYGYWGQGTLVTVSS
VL: DIQMTQSPSSLSASVGDRVTITCSGNKLGDKYASWYQQKPGKAPKLLIYRTSWLQSGVPSRFSGSGSGTDFTLTISSLQPEDFATYYCVARAVRGNPHVLFGQGTKVEIK
B13: TIGIT-211-40 (antibody, V domains shown)
VH: EVQLLESGGGLVQPGGSLRLSCAASGFTFSRYAMNWVRQAPGKGLEWVSEISPSGKKKYYADSVKGRFTISRDNSKNTLYLQMNSLRAEDTAVYYCAKSSFDKYNFDYWGQGTLVTVSS
VL: DIQMTQSPSSLSASVGDRVTITCRASQDIGNFLNWYQQKPGKAPKLLIYRTSWLQSGVPSRFSGSGSGTDFTLTISSLQPEDFATYYCQQRSSYPPTFGQGTKVEIK
B14: TIGIT-211-42 (antibody, V domains shown)
VH: EVQLLESGGGLVQPGGSLRLSCAASGFTFNHYGMGWVRQAPGKGLEWVSYISSSGSSTYYADSVKGRFTISRDNSKNTLYLQMNSLRAEDTAVYYCAKGWLGNFDYWGQGTLVTVSS
VL: DIQMTQSPSSLSASVGDRVTITCRASQGVRTSLAWYQQKPGKAPKLLIYGKNIRPSGVPSRFSGSGSGTDFTLTISSLQPEDFATYYCQQSYSFPLTFGQGTKVEIK
B15: TIGIT-211-43 (antibody, V domains shown)
VH: EVQLLESGGGLVQPGGSLRLSCAASGFTFYDYTMDWVRQAPGKGLEWVSAISGSGGGTSYADSVKGRFTISRDNSKNTLYLQMNSLRAEDTAVYYCARRHWPGGFDYWGQGTLVTVSS
VL: DIQMTQSPSSLSASVGDRVTITCRASQSIRRYLNWYQQKPGKAPKLLIYWASDRESGVPSRFSGSGSGTDFTLTISSLQPEDFATYYCQQSFSTPLTFGQGTKVEIK
B16: TIGIT-211-45 (antibody, V domains shown)
VH: EVQLLESGGGLVQPGGSLRLSCAASGFTFRRYVMGWVRQAPGKGLEWVSEISPSGGYTYYADSVKGRFTISRDNSKNTLYLQMNSLRAEDTAVYYCAKRWTFNTAFDYWGQGTLVTVSS
VL: B15 VL with W50D, D53N, R54L, E55Q, F92Y, S93D, T94F, L96R
B17: TIGIT-211-51 (antibody, V domains shown)
VH: EVQLLESGGGLVQPGGSLRLSCAASGFTFHKYGMAWVRQAPGKGLEWVSTISSGGGYTYYPDSVKGRFTISRDNSKNTLYLQMNSLRAEDTAVYYCARDTYLHFDYWGQGTLVTVSS
VL: B14 VL with G50A, I53N, F94A, L96Y
B18: TIGIT-211-57 (antibody, V domains shown)
VH: EVQLLESGGGLVQPGGSLRLSCAASGLTFPNYGMGWVRQAPGKGLEWVSAISREGRATYYADSVKGRFTISRDNSKNTLYLQMNSLRAEDTAVYYCARVIAAAGAFDYWGQGTLVTVSS
VL: DIQMTQSPSSLSASVGDRVTITCRSSQSLVHSTGNTYLHWYQQKPGKAPKLLIYGKNIRPSGVPSRFSGSGSGTDFTLTISSLQPEDFATYYCQQSYTTPWTFGQGTKVEIK
B19: TIGIT-211-69 (antibody, V domains shown)
VH: EVQLLESGGGLVQPGGSLRLSCAASGFTFGNYRMTWVRQAPGKGLEWVGVIWGGGGTYYADSVKGRFTISRDNSKNTLYLQMNSLRAEDTAVYYCARIFSYALDYWGQGTLVTVSS
VL: B15 VL with S28N, R31S, W50G, D53T, R54L, E55Q, F92Y, S93E, T94N

Legend:
[1] = biological target: T1, human TIGIT-Fc (human, UniProt Q495A1 22-141, limits assumed); experiment: CD155 competition ELISA, single point; also: test concentration or dose not given here
T1 construct: not shown: Fc; not described
T1 sequence (looked up): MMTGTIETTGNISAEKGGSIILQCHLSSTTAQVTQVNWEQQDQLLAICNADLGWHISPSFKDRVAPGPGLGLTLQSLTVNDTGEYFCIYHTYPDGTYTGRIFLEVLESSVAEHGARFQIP
Method: TIGIT/CD155 inhibition of VHH-Fcs were assessed using an ELISA assay (Table 10B). Briefly, human TIGIT-Fc was coated on a plate & then incubated with VHH-Fcs and human CD155-biotin. Bound CD155-biotin was detected using a streptavidin-HRP conjugate visualized with TMB. Strong inhibitors from the single point screen were titrated to determine EC50 (Table 10C).

[2] = biological target: T2, recombinant human TIGIT (human, UniProt Q495A1 22-141, limits assumed); experiment: SPR (Carterra), average
T2 construct: also called T cell immunoreceptor with Ig and ITIM domains
T2 sequence (looked up): T1 sequence (looked up)
Method: Binding affinities of VHH-Fc proteins to recombinant human TIGIT were measured by SPR using a Carterra instrument (Table 10A). […] Average values reported from measurements from 1-2 samples.

[3] = biological target: T3, TIGIT (UniProt Q495A1 22-141, limits assumed); experiment: SPR (Carterra)
T3 construct: also called T cell immunoreceptor with Ig and ITIM domains; hTIGIT
T3 sequence (looked up): T1 sequence (looked up)

[4] = biological target: T3, TIGIT; experiment: TIGIT:CD155 blockade assay, competitor CD155
[5] = biological target: T3, TIGIT; experiment: SPR (Carterra); remark: listed apart in the source
[6] = biological target: T3, TIGIT; experiment: ELISA; design: unit not given here

Binder	Kd [5] [nM]	koff [5] [s⁻¹]	kon [5] [M⁻¹ s⁻¹]	ELISA [6]	also measured
B1	–	–	–	–	OD (450 nm) [1]: 0.374 OD; Kd [2]: 112000 nM; koff [2]: 0.00692 s⁻¹; kon [2]: 143 M⁻¹ s⁻¹
B2	–	–	–	–	OD (450 nm) [1]: 0.414 OD; Kd [2]: 302000 nM; koff [2]: 0.0054 s⁻¹
B3	–	–	–	–	Kd [3]: 61.3 nM; RU [3]: 175 RU; koff [3]: 0.022 s⁻¹; kon [3]: 359000 M⁻¹ s⁻¹; IC50 [4]: 9.6 nM
B4	–	–	–	–	Kd [3]: 164 nM; RU [3]: 156 RU; koff [3]: 0.0565 s⁻¹; kon [3]: 344000 M⁻¹ s⁻¹; IC50 [4]: 13.6 nM
B5	–	–	–	–	Kd [3]: 55.4 nM; RU [3]: 78 RU; koff [3]: 0.0122 s⁻¹; kon [3]: 221000 M⁻¹ s⁻¹; IC50 [4]: 5.9 nM
B6	–	–	–	–	Kd [3]: 51.4 nM; RU [3]: 122 RU; koff [3]: 0.0192 s⁻¹; kon [3]: 373000 M⁻¹ s⁻¹; IC50 [4]: 9.8 nM
B7	–	–	–	–	Kd [3]: 7290 nM; RU [3]: 1080 RU; koff [3]: 0.269 s⁻¹; kon [3]: 36900 M⁻¹ s⁻¹; IC50 [4]: 14.4 nM
B8	472	0.126	266000	13.2	–
B9	268	0.000832	3110	9.7	–
B10	63.1	0.0016	25400	7.2	–
B11	2230	0.0681	30500	8	–
B12	605	0.0406	67100	8.8	–
B13	392	0.0405	103000	10.2	–
B14	66.1	0.000643	9740	8	–
B15	819	0.00117	1430	12	–
B16	105	0.00125	11900	8.8	–
B17	96.5	0.0335	347000	10.7	–
B18	3400	0.105	30800	12.4	–
B19	3040	0.0622	20400	7.9	–
